For one molecule, Kd results are on record in article doi:10.1101/2025.08.18.670068, “Computational Design of Soluble CCR8 Analogues with Preserved Antibody Binding” (bioRxiv, 2025).

Usually Kd stands for the concentration at which binding is half-saturated. Read a low Kd as higher affinity.

The assay addresses T1, Wild-type CCR8 used as an assay control (Homo sapiens, UniProt P51685).
T1 construct: C-C chemokine receptor 8 (CCR8), human, wild type; Detergent-solubilised; 0.05% DDM and 0.01% CHS in the SPR running buffer; also called WT-CCR8; wild-type Human CCR8 protein; source: bought: Acro Biosystems (Cat. #CC8-H52D6)
As to the kind of experiment: SPR; Biacore 8K; mAb1 IgG1 captured on Protein A chip (about 400 RU); wild-type CCR8 as analyte; 10 mM HEPES, 150 mM NaCl, 3 mM EDTA, 0.005% Tween-20, pH 7.4, with 0.05% DDM and 0.01% CHS; steady-state affinity fit. The note with it: both partners purified. In general terms: Surface plasmon resonance follows binding to a sensor surface in real time, without labels.

B1: mAb1 in full length human IgG1 format (antibody, V domains shown)
VH: QSVEESGGRLVTPGTPLTLTCTVSGFSLSNYAMIWVRQAPGEGLEWVGTISLGGYTYYANWAKGRFTISKTSTTVDLKISSPTTEDTATYFCARARWSTDSAIYTYAFDPWGPGTLVTVSS
VL: AYDMTQTPASVEVAVGGTVTIKCQASQSISSYLSWYQQKPGQRPELLIYKASTLASGVSSRFKGSGSGTQFTLTISDLEAADAATYYCQQGYTSSNIDNIFGGGTEVVVK
notes: VH of mAb1; constant region of human IgG1 heavy chain ('full length human IgG1 format'); light chain of mAb1; IgG1; captured on a Protein A chip for SPR; source: CHO cells, purified by one step Protein A chromatography
Consider B1, for which the equilibrium dissociation constant (Kd) amounted to 190 nM.
